We go through two molecules from patent US20150344583A1.

For test [1], the target named is TACI on transiently transfected cells (human) (UniProt O14836). The experiment in a line: FACS, hu TACI.
The target in test [2] is human BCMA (huBCMA) on cells (human) (UniProt Q02223). The experiment in a line: APRIL blocking.
The target is the same in test [3]. In words: FACS, hu BCMA. Background: Flow cytometry measures light scatter and fluorescence of single cells or particles in a stream.
For test [4], the target named is cynomolgus (Macaca fascicularis) BCMA on cells (cynomolgus (Macaca fascicularis)). The experiment in a line: FACS, Cyno BCMA.
Chain of cynomolgus (Macaca fascicularis) BCMA on cells (cynomolgus (Macaca fascicularis)) (Q02223 other isoform, or with tags, fused parts or gaps): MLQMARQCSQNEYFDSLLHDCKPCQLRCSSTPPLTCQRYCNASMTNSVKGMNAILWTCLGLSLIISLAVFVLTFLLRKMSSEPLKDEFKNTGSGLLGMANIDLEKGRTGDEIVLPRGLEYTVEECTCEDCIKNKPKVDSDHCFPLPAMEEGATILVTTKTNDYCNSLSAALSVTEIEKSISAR
The target is the same in test [5]. The experiment in a line: CynoBCMA O/N FACS.
In test [6] the target is recombinant soluble human BCMA (rhu BCMA), analyte of the Example 2 Biacore assay (human) (UniProt Q02223). The experiment in a line: SPR (BIAcore 3000), steady state fit, antibody captured, rhu BCMA as analyte. In general terms: In SPR one partner is held on a chip, and binding of the other changes the refractive index at the surface.
Chain of recombinant soluble human BCMA (rhu BCMA), analyte of the Example 2 Biacore assay (human) (Q02223 1-54 limits assumed): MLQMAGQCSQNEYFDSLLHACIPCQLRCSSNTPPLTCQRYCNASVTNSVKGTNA

Chain of human BCMA (huBCMA) on cells (human) (Q02223 whole entry N81S): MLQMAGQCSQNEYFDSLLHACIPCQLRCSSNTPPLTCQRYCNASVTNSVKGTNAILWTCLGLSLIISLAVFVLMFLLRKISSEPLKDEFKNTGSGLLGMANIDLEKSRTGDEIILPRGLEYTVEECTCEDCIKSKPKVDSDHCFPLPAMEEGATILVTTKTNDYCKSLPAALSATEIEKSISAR
Chain of TACI on transiently transfected cells (human) (O14836 whole entry): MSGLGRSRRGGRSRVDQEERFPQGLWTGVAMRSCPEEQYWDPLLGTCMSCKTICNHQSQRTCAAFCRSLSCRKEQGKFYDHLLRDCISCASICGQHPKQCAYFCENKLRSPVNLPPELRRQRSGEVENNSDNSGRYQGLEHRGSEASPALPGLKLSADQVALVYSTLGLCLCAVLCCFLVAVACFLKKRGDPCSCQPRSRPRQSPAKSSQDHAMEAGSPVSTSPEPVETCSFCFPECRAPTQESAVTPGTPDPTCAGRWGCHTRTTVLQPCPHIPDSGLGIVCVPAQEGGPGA

B1: 33C7 (antibody, from a related filing, V domains shown)
VH: EVQLLESGGALVQPGGSLRLSCAASGFTFSSYAMNWVRQAPGKGLEWVSAISVGGDTYYADSVKGRFTISRDNSKNTLYLHVNSLSAEDSAVYYCAKDQVTLVRGVWYYYGLDVWGQGTTVTVSS
VL: VIVLIQSPLSLPVTPGEPASISCRSSQSLLHSNGNNYLDWYLQKPGQSPHLLISLGSNRTSGVPDRFSGSGSGTDFTLKISRVEAEDVGFYYCMQALQPPRRFGQGTKLEIKR
As to B1, the MFI worked out at 1890 MFI in test [1], 132000 MFI in test [3], 238000 MFI in test [4] and 109 MFI in test [5]. The % Inhibition n=1 in test [2] was 68%. Also, the % Inhibition n=2 in test [2] is 88%. In test [2], this molecule displayed an Avg. % Inhibition of 78%.

B2: 11F12 (antibody, from a related filing, IgG1, V domains shown)
VH: QVQLVESGGGVVQPGRSLRLSCAASGFTFSSYGLHWVRQAPGKGLEWVALISYDGSNKYYADSVKGRFTISRDNSKNTLYLQMNSLRAEDTAVYYCWYSSSWTPLDYWGQGTLVTVSS
VL: DIQMTQSPSSLSASVGDRVTITCRASQGIRNDLGWYQQKPGKAPKRLIYAASSLQSGVPSRFSGSGSGTEFTLTISSLQPEDFATYYCLQYYSYPLTFGGGTKVEIKR
As a reminder, the Kd is the equilibrium constant for the complex coming apart. For B2, the Kd in test [6] was 36.1 nM.
